Measurements from publication PMC6497099, “Structural basis for oligomerization of the prokaryotic peptide transporter PepTSo2” (Acta Crystallographica. Section F, Structural Biology …, 2019).

What was measured:
[1] = molecular target: the molecule itself; test: SEC; purified PepTSo2 in DDM-containing buffer, Superose 6 Increase column, tryptophan fluorescence (excitation 280 nm, emission 350 nm)
[2] = molecular target: the molecule itself; test: SEC; fluorescence-detection SEC (FSEC) of the DDM-solubilised supernatant of E. coli cells mixed with the His tag-specific probe P3NTA (excitation 482 nm, emission 520 nm)

B1: PepTSo2 from Shewanella oneidensis, purified, His6 tag cleaved by TEV protease (natural protein, S. oneidensis)
chain: MTLGTNQVSKTHSFMTVSLIELWERFGYYGMQALIVYFMVQRLGFDDSRANLVWSACAALIYVSPAIGGWVGDKILGTKRTMLLGAGILSVGYALMTVPTENTWFMFSALGVIVVGNGLFKPNAGNLVRKIYEGDDSKIDSAFTIYYMAVNVGSTFSMLLTPWIKDYVNAQYGNEFGWHAAFAVCCVGILVGLGNYALMHKSLANYGSEPDTRPVNKKSLAIVLALAALSVVASAIILEYEDVARVFVYAAGVAVLGIFFHLIRTSEPSERAGLIAALILTVQTVFFFIFYQQMSTSLALFALRNVDWDFQVFGTHLWTWSPAQFQALNPIWIMVLSPVLAWSYSWAGRNNKDFSIAAKFALGFAVVAIGFFIYGFAGQFAVNGKTSSWVMIWGYASYSLGELLVSGLGLAMIARYVPARMGGFMMGAYFVASGISQYLGGVVANFASVPQDLVDPLQTLPVYTNLFNKLGVAAVVCTIIALAVLPLMRRLTESHHAHSSIENNAAASLRDVKAEQLESSGENLYFQ
notes: full-length PepTSo2, Shewanella oneidensis, UniProt Q8EHE6; Detergent-solubilised (DDM) for SEC; in Salipro nanoparticles (saposin A, DMPG) for cryo-EM; in monoolein lipidic cubic phase for crystals; also called tetrameric PepTSo2; purified PepTSo2; source: E. coli Rosetta 2 (DE3), purified (DDM solubilisation, Ni-NTA, TEV cleavage, second Ni-NTA, SEC); not shown: His6, C-terminal, cleaved
[1]
  stoichiometry N: 4

B2: C-terminally His6-tagged full-length PepTSo2 (tag kept, FSEC screening) (natural protein, S. oneidensis)
chain: MTLGTNQVSKTHSFMTVSLIELWERFGYYGMQALIVYFMVQRLGFDDSRANLVWSACAALIYVSPAIGGWVGDKILGTKRTMLLGAGILSVGYALMTVPTENTWFMFSALGVIVVGNGLFKPNAGNLVRKIYEGDDSKIDSAFTIYYMAVNVGSTFSMLLTPWIKDYVNAQYGNEFGWHAAFAVCCVGILVGLGNYALMHKSLANYGSEPDTRPVNKKSLAIVLALAALSVVASAIILEYEDVARVFVYAAGVAVLGIFFHLIRTSEPSERAGLIAALILTVQTVFFFIFYQQMSTSLALFALRNVDWDFQVFGTHLWTWSPAQFQALNPIWIMVLSPVLAWSYSWAGRNNKDFSIAAKFALGFAVVAIGFFIYGFAGQFAVNGKTSSWVMIWGYASYSLGELLVSGLGLAMIARYVPARMGGFMMGAYFVASGISQYLGGVVANFASVPQDLVDPLQTLPVYTNLFNKLGVAAVVCTIIALAVLPLMRRLTESHHAHSSIENNAAASLRDVKAEQLESSGENLYFQGQFTSSV
notes: full-length PepTSo2, Shewanella oneidensis, UniProt Q8EHE6; cloning artifact with the TEV protease site, between PepTSo2 and the His6 tag (not cleaved in this experiment); Detected in FSEC by the histidine tag-specific fluorescent probe P3NTA; also called His6-tagged PepTSo2; His6 construct; source: E. coli Rosetta 2 (DE3) or C41 (DE3) with pRARE, DDM-solubilised supernatant of disrupted cells; …
[2]
  stoichiometry N: 4
